Paper PMC5669894

Experiments:
[1] = target: C-terminal SH3 domain of the growth factor receptor-bound protein 2 (Grb2) (UniProt P62993); experiment: stopped-flow binding kinetics (intrinsic fluorescence); pseudo-first order; Grb2 SH3C constant at 0.5 μM, Gab2 503-524 peptide 1-10 μM (1-12 μM for P519A); 10°C; 25mM HEPES, 100mM potassium acetate, pH 7.5; apparent association and dissociation rate constants
[2] = target: C-terminal SH3 domain of the growth factor receptor-bound protein 2 (Grb2) (UniProt P62993); experiment: stopped-flow displacement kinetics (intrinsic fluorescence); pre-incubated complex of wild type Grb2 SH3C (10 μM) and Gab2 503-524 (10 μM) mixed with excess Grb2 SH3C W35Y/W36Y (100 μM and 200 μM); 25°C; 25mM HEPES, 100mM potassium acetate, pH 7.5

Gab2 503-524 peptide, wild type, sequence (Q9UQC2 503-524): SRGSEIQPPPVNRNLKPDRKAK

| Substance | Kd [1] | koff [2] | koff [1] | kon [1] |
| --- | --- | --- | --- | --- |
| Gab2 503-524 peptide, variant P510A | 2.5 µM | – | – | – |
| Gab2 503-524 peptide, variant P519A | 12 µM | – | – | – |
| Gab2 503-524 peptide, wild type | – | 350 s⁻¹ | 53 s⁻¹ | 4.3e+07 M⁻¹ s⁻¹ |
| Gab2 503-524 peptide, variant P512A | 2.5 µM | – | – | – |
